Biological target: G. thermodenitrificans SecYE (Geobacillus thermodenitrificans NG80-2, UniProt A4IJK8;A4IJH4)
Assay: SEC

B1: nanobody AYC08 (VHH)
VHH: QVQLVETGGGLVQPGGSLRLSCGASGSIFNMYAMGWYRQAPGKQREVVARIATDDSTMYPDSVKGRFTISRDNAKNTVYLQMNSLKPEDTAVYYCYYQRTVMSQPYWGQGTQVTVSS
- binding result: binds
